The results in this text go back to US20050250692A1.

Assay [1] addresses acidic pH binding sites of MEF cells. Briefly: competition with 125I-α2M* binding to MEF cells at pH 5.5.
Assay [2] deals with acidic pH binding sites of PEA-13 cells. Kind of assay: competition with 125I-α2M* binding to PEA-13 cells at acidic pH.
Assay [3] has as its target acidic pH binding sites of Mv1Lu cells. Kind of assay: Scatchard plot analysis of 125I-α2M* binding to Mv1Lu cells at pH 5.
Assay [4] has the same target. Kind of assay: concentration dependence of 125I-α2M* binding to Mv1Lu cells at pH 5.

B1: α2M activated by methylamine (α2M*) (ligand, human, UniProt P01023 24-1474, looked up)
chain: SVSGKPQYMVLVPSLLHTETTEKGCVLLSYLNETVTVSASLESVRGNRSLFTDLEAENDVLHCVAFAVPKSSSNEEVMFLTVQVKGPTQEFKKRTTVMVKNEDSLVFVQTDKSIYKPGQTVKFRVVSMDENFHPLNELIPLVYIQDPKGNRIAQWQSFQLEGGLKQFSFPLSSEPFQGSYKVVVQKKSGGRTEHPFTVEEFVLPKFEVQVTVPKIITILEEEMNVSVCGLYTYGKPVPGHVTVSICRKYSDASDCHGEDSQAFCEKFSGQLNSHGCFYQQVKTKVFQLKRKEYEMKLHTEAQIQEEGTVVELTGRQSSEITRTITKLSFVKVDSHFRQGIPFFGQVRLVDGKGVPIPNKVIFIRGNEANYYSNATTDEHGLVQFSINTTNVMGTSLTVRVNYKDRSPCYGYQWVSEEHEEAHHTAYLVFSPSKSFVHLEPMSHELPCGHTQTVQAHYILNGGTLLGLKKLSFYYLIMAKGGIVRTGTHGLLVKQEDMKGHFSISIPVKSDIAPVARLLIYAVLPTGDVIGDSAKYDVENCLANKVDLSFSPSQSLPASHAHLRVTAAPQSVCALRAVDQSVLLMKPDAELSASSVYNLLPEKDLTGFPGPLNDQDNEDCINRHNVYINGITYTPVSSTNEKDMYSFLEDMGLKAFTNSKIRKPKMCPQLQQYEMHGPEGLRVGFYESDVMGRGHARLVHVEEPHTETVRKYFPETWIWDLVVVNSAGVAEVGVTVPDTITEWKAGAFCLSEDAGLGISSTASLRAFQPFFVELTMPYSVIRGEAFTLKATVLNYLPKCIRVSVQLEASPAFLAVPVEKEQAPHCICANGRQTVSWAVTPKSLGNVNFTVSAEALESQELCGTEVPSVPEHGRKDTVIKPLLVEPEGLEKETTFNSLLCPSGGEVSEELSLKLPPNVVEESARASVSVLGDILGSAMQNTQNLLQMPYGCGEQNMVLFAPNIYVLDYLNETQQLTPEIKSKAIGYLNTGYQRQLNYKHYDGSYSTFGERYGRNQGNTWLTAFVLKTFAQARAYIFIDEAHITQALIWLSQRQKDNGCFRSSGSLLNNAIKGGVEDEVTLSAYITIALLEIPLTVTHPVVRNALFCLESAWKTAQEGDHGSHVYTKALLAYAFALAGNQDKRKEVLKSLNEEAVKKDNSVHWERPQKPKAPVGHFYEPQAPSAEVEMTSYVLLAYLTAQPAPTSEDLTSATNIVKWITKQQNAQGGFSSTQDTVVALHALSKYGAATFTRTGKAAQVTIQSSGTFSSKFQVDNNNRLLLQQVSLPELPGEYSMKVTGEGCVYLQTSLKYNILPEKEEFPFALGVQTLPQTCDEPKAHTSFQISLSVSYTGSRSASNMAIVDVKMVSGFIPLKPTVKMLERSNHVSRTEVSSNHVLIYLDKVSNQTLSLFFTVLQDVPVRDLKPAIVKVYDYYETDEFAIAEYNAPCSKDLGNA
modifications: activated by methylamine; 125I-labelled where used as tracer
Usually IC50 stands for the concentration that gives 50% inhibition. A higher IC50 goes with weaker potency. As usually defined, the Kd is the constant that tells how readily two partners part at equilibrium. The molecule B1 came in with an IC50 in assay [1] of 50 nM. The molecule also yielded an IC50 in assay [2] of 120 nM. In assay [3], this molecule yielded a Kd of 51 nM and a sites/cell of 1e+06 sites/cell. In addition, in assay [4], the saturating concentration stood at 120 nM.
